According to patent EP4086281A1 (China Immunotech (Beijing) Biotechnology Co., Ltd, dated 2022):

Biological target: T1, CD19 expressed by Raji cells (human lymphoma cell line) (human, UniProt P15391 20-556)
T1 construct: whole, on cells; On intact Raji cells in flow cytometry and co-culture; In the western blot it is the denatured protein of a Raji lysate (band of 95kD); also called CD19 protein in the Raji cells
T1 sequence (looked up): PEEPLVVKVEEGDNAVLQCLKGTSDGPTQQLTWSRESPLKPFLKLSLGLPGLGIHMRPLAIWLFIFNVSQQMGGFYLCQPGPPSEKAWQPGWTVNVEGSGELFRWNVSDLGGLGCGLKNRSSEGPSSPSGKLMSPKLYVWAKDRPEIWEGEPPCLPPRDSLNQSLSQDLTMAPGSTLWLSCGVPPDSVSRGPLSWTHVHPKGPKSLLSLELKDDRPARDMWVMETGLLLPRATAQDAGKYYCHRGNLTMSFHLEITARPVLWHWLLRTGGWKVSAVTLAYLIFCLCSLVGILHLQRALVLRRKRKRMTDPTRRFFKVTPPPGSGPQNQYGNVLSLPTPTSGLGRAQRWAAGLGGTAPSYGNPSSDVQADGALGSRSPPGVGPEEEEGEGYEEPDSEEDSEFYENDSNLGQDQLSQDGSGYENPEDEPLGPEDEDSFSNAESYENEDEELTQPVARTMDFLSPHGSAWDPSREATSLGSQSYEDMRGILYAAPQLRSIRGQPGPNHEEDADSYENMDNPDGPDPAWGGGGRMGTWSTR
Assay: flow cytometry on Raji cells, antibody titrated from 0 to 375 nM, curve fitted with GraphPad

Kd: 1.53 nM
B1: monoclonal antibody 334 targeting CD19 (hybridoma CGMCC No. 17095) (antibody, V domains shown)
VH: QVQLQQSGAELVRPGASVKLSCKALGFIFTDYEIHWVKQTPVHGLEWIGAFHPGSGGSAYNQKFKGKATLTADKSSSTAYMELSSLTFEDSAVYHCTRQLGPDWGQGTLVTVS
VL: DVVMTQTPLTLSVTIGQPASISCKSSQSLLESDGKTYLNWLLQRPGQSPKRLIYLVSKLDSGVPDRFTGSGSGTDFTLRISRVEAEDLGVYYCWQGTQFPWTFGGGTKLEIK
notes: it is a hybridoma antibody detected with anti-mouse secondary antibodies
